Results taken from US20210340232A1, “MONOCLONAL ANTIBODIES AGAINST HUMAN DICKKOPF3 AND USES THEREOF” (Board of Regents, The University of Texas System, priority 2018, published 2021).

Legend:
BxPC3 cells = experiment: BxPC3 resistance to gemcitabine, MTS proliferation assay; type: cell-based, human; settings: BxPC3, gemcitabine 100 μM, HPSC-CM 10 μg/ml, 6 days
Procedure: HPSCs and BxPC3 cells were treated with DKK3 mAb clones JM6-6-1 and JM8-12-1 or isotype control mAb or PBS. (FIGS. 5A-B) HPSC apoptosis and migration as measured by FACS and Transwell migration assay at 48 hours. (FIG. 5C) BxPC3 migration in response to rhDKK3 10 μg/ml as measured by Transwell migration assay at 48 hours. (FIG. 5D) BxPC3 resistance to gemcitabine 100 μM as measured by MTS proliferation assay at 6 days. HPSC-CM, pancreatic stellate cell conditioned media, 10 μg/ml. The orthotopic co-injection BxPC3+ HPSC model of PDAC was used to test the efficacy of DKK3 mAb clones JM6-6-1 or JM8-12-1 (5 mg/kg i.p. once every 5 days). (FIG. 5E) Overall tumor progression was measured every 3-4 days by IVIS imaging. (FIG. 5F) Metastatic tumors in the peritoneal cavity after removal of the primary pancreatic tumor are shown by IVIS imaging. (FIG. 5G) Kaplan Meier survival curve showing mice treated with DKK3 mAb clone JM8-12 (right-most line), control mAb (middle line), or PBS (left-most line). (FIG. 5H) KPC mice (P48-Cre; Kras LSL-G12D;Trp53fl/fl) with either wild type DKK3 (solid lines) or deficient in DKK3 (“DKK3-KO,” dashed lines) were treated with DKK3 mAb JM6-6-1 (5 mg/kg i.p. once every 5 days), PBS or control mAb. […]
Cell-based assays. Cell proliferation was measured by the MTS assay (Promega, Madison, Wis.). […]

KPC cells = experiment: Syngeneic orthotopic model with luciferase-labeled KPC cells in C57/BL6 mice; type: in vivo, mouse
Procedure: FIGS. 6A-F. DKK3 blockade is associated with increased tumor immune infiltrates and improves response to checkpoint inhibitor therapy. (FIG. 6A) T cells were stimulated, treated with DKK3 (5-10 μg/mL) and proliferation was measured by CFSE assay. In a syngeneic orthotopic model with luciferase-labeled KPC cells, tumors were examined for CD3 and CD8 expression by IHC (FIG. 6B) and additional markers of T cell activity were measured by quantitative PCR (FIG. 6C). Mice in this model were treated with either control IgG, DKK3 mAb JM6-6-1, αCTLA4 or the combination JM6-6-1+αCTLA4 and tumor growth was measured by IVIS imaging to 25 and 190 days (FIG. 6D). Survival in this orthotopic implantation model is shown in (FIG. 6E). Using a GEMM (FIG. 6F), KPC/DKK3^+/+ (black line) or KPC/DKK3^−/− (blue line) mice were treated with αCTLA4 or control IgG and the Kaplan Meier survival curve is shown. *p<0.05, **p<0.01, ***p<0.001.
An orthotopic nude mouse model of PDAC using BxPC3 cancer cells labeled with firefly luciferase (BxPC3-FL) co-injected with HPSCs has been previously described (Hwang et al., 2008). Mice received intrapancreatic injections of BxPC3-FL (1×10^6 per mouse) with HPSC-shControl or HPSC-shDKK3 in a tumor-to-stroma ratio of 1:0 or 1:3 in 50-μL of HBSS and tumor growth was monitored using IVIS imaging (Hwang et al., 2008). In addition, a syngeneic immunocompetent DKK3 null model was used, provided by Dr. C. Niehrs (Barrantes Idel et al., 2006), that was injected with murine PDAC cells (termed “KPC cells”) isolated from tumors arising in a GEMM of PDAC (Pdx1-Cre; Kras^LSL-G12D;Trp53^R172H/+) (Hingorani et al., 2005; Hingorani et al., 2003) and labeled with luciferase.
In order to determine whether manipulation of DKK3 can affect the response to checkpoint inhibitors, mice in the syngeneic orthotopic C57/BL6 model were treated with either isotype control IgG, DKK3 mAb JM6-6-1, α-CTLA4 or the combination of JM6-6-1 with α-CTLA4. […] With additional follow-up to day 200 (FIG. 6D, right), tumors in all groups continued to grow albeit at a slower rate in the JM6-6-1 and combination JM6-6-1+α-CTLA4 groups (FIG. 6D). […] Combination treatment JM6-6-1+α-CTLA4 was associated with a highly significant improvement in survival (p=0.004) and median survival was not reached in this group (FIG. 6E). […] In the combination treatment group, 80% of mice were alive and appeared healthy at 800 days and were electively sacrificed. In the JM6-6-1 group, 20% of mice were still alive at 726 days when they were electively sacrificed.

B1: JM6-6-1: monoclonal antibody against human DKK3; heavy chain variable SEQ ID NO: 19, light chain variable SEQ ID NO: 20 (antibody, V domains shown)
VH: EVKLVESGGGLVKPGGSLKLSCAASGFTFTIEYMAWIRQTPEKRLEWVASISSGGDDIYYADNVKGRFTISRDNAKNTLYLQMSSLKSEDTAIYYCSRSLSDWGQGTTLTVSSAKTTPPSDYPLA
VL: MTQTPLSLPVSLGDQASISCRSSQSILHSNGHTYLEWYLQKPGQSPKLLIYKVSNRFSGVPDRFSGSGSGTDFTLKISRVEAEDLGVYYCFQGSHVPFTFGSGTKLEIERADAAQ
Question: How did the “effect on DKK3-mediated chemoresistance to gemcitabine” value (BxPC3 cells) turn out when B1 was run?
Answer: abrogated the DKK3-mediated induction of chemoresistance to gemcitabine

Question: What about the “mice alive at 726 days” value (KPC cells; 726 days) of the same molecule?
Answer: 20%

Question: And the “gross tumors in pancreata of remaining mice” value (KPC cells; at elective sacrifice)?
Answer: no gross tumors were identified

Question: What about the “tumor growth by luciferase signal” value (KPC cells; compared to control IgG) of the same molecule?
Answer: growth inhibition at 22 days and onward

Question: What about the median survival (KPC cells; syngeneic orthotopic C57/BL6 model) of the same molecule?
Answer: 75 days
